Reference: PMC5736716, “A hydrophobic anchor mechanism defines a deacetylase family that suppresses host response against YopJ effectors” (Nature Communications, 2017)

Assays:
[1] = test system: CC(=O)Oc1ccc([N+](=O)[O-])cc1; experiment: purified protein; details: 20 mM HEPES, 150 mM NaCl, pH 7.52-7.55, 0.01% Triton X-100, room temperature; pH 7.0
[2] = test system: CCCC(=O)Oc1ccc([N+](=O)[O-])cc1; experiment: purified protein; details: 20 mM HEPES, 150 mM NaCl, pH 7.52-7.55, 0.01% Triton X-100, room temperature; pH 7.0
[3] = test system: CCCCC(=O)Oc1ccc([N+](=O)[O-])cc1; experiment: purified protein; details: 20 mM HEPES, 150 mM NaCl, pH 7.52-7.55, 0.01% Triton X-100, room temperature; pH 7.0
AtTIPSY1 = target: T1, AtTIPSY1 (Arabidopsis thaliana, UniProt Q8GYK2); experiment: colorimetric p-nitrophenol release at […] nm; assay type: biochemical; details: 20 mM HEPES, 150 mM NaCl, pH 7.52-7.55, 0.01% Triton X-100, room temperature
T1 sequence (Q8GYK2 1-262): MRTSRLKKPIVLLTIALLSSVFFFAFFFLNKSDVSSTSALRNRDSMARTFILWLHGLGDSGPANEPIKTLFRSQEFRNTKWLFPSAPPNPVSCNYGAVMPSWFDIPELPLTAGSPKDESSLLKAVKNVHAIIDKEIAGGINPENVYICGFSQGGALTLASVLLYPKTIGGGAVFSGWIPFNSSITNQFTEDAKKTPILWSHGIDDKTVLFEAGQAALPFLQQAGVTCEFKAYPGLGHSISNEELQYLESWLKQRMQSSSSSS

HA:AvrBsT = HA:AvrBsT (Xanthomonas euvesicatoria, UniProt A0ABS8LK00); assay type: biochemical
purified protein [4] = substrate: CC(=O)Oc1ccc([N+](=O)[O-])cc1; experiment: purified protein; details: 20 mM HEPES, 150 mM NaCl, pH 7.52-7.55, 0.01% Triton X-100, room temperature; pH 7.0; remark: listed apart in the source
purified protein [5] = substrate: CCCC(=O)Oc1ccc([N+](=O)[O-])cc1; experiment: purified protein; details: 20 mM HEPES, 150 mM NaCl, pH 7.52-7.55, 0.01% Triton X-100, room temperature; pH 7.0; remark: listed apart in the source
purified protein [6] = substrate: CCCCC(=O)Oc1ccc([N+](=O)[O-])cc1; experiment: purified protein; details: 20 mM HEPES, 150 mM NaCl, pH 7.52-7.55, 0.01% Triton X-100, room temperature; pH 7.0; remark: listed apart in the source

Molecule: AtSOBER1 (Arabidopsis thaliana; F65L)
- Km [1]: 3.12 ± 0.44 × 10^-4 M
- kcat [1]: 1.88 ± 0.23 × 10^2 s-1
- Km [2]: 4.80 ± 0.23 × 10^-5 M
- kcat [2]: 1.10 ± 0.18 × 10^1 s-1

Molecule: AtSOBER1 (Arabidopsis thaliana; L63A)
- Km [1]: 6 mM
- Km [2]: 30 µM
- Km [3]: 4 µM

Molecule: AtTIPSY1 (Arabidopsis thaliana; L110F)
- Km [1]: 1.75 ± 0.33 × 10^-3 M
- kcat [1]: 4.82 ± 0.32 × 10^2 s-1

Molecule: CCCCCC(=O)Oc1ccc([N+](=O)[O-])cc1 [pNP hexanoate]
- Michaelis-Menten parameters (AtTIPSY1): allowed the protein to hydrolyze para-nitrophenyl hexanoate, like AtTIPSY1 is able to

Molecule: CC(=O)SCCNC(=O)CCNC(=O)[C@H](O)C(C)(C)COP(=O)(O)OP(=O)(O)OC[C@H]1O[C@@H](n2cnc3c(N)ncnc32)[C@H](O)[C@@H]1OP(=O)(O)O [[Acetyl-1-^14C]-Acetyl Coenzyme A]
- autoradiography of auto-acetylation on anti-HA beads (HA:AvrBsT): led to auto-acetylation of the wild type protein, but not the enzymatically inactive mutant

B1: AtSOBER1 (Arabidopsis thaliana) (protein)
chain: MARTFILWLHGLGDSGPANEPIQTQFKSSELSNASWLFPSAPFNPVTCNNGAVMRSWFDVPELPFKVGSPIDESSVLEAVKNVHAIIDQEIAEGTNPENVFICGLSQGGALTLASVLLYPKTLGGGAVLSGWVPFTSSIISQFPEEAKKTPILWSHGTDDRMVLFEAGQAALPFLKEAGVTCEFKAYPGLGHSISNKELKYIESWIKRRLKGSSSTCLQLNCLKEMFH
- Km (purified protein [4]): 158 µM
- Km (purified protein [5]): 227 µM
- Km (purified protein [6]): 327 µM

B2: AtTIPSY1 (Arabidopsis thaliana) (protein)
chain: T1 sequence (Q8GYK2 1-262)
- Km (purified protein [4]): 1.75 ± 0.18 × 10^-3 M
- Km (purified protein [5]): 5.03 ± 0.41 × 10^-4 M
- Km (purified protein [6]): 3.07 ± 0.29 × 10^-4 M
- kcat (purified protein [6]): 6.46 ± 0.39 × 10^1 s-1
